This is an account of results in PMC9499402, “Crystal Structure of an Archaeal Tyrosyl-tRNA Synthetase Bound to Photocaged L-Tyrosine and Its Potential Application to Time-Resolved X-ray Crystallography” (International Journal of Molecular Sciences, 2022).

The data set concerns the molecule itself. Put plainly: crystal structure; oNBTyrRS (10 mg/mL) co-crystallised with oNBTyr (1.4 mg/mL), sitting-drop vapor diffusion at 20 °C; reservoir 20% PEG300, 3% PEG8000, 10% glycerol, 100 mM Tris-HCl pH 8.0; dimer in the asymmetric unit; 2.79 Å.

B1: oNBTyrRS, O-(2-nitrobenzyl)-L-tyrosine-specific variant of Methanocaldococcus jannaschii tyrosyl-tRNA synthetase (Y32G, L65G, F108E, D158S, L162E, D286R) (enzyme, UniProt Q57834 1-306, looked up)
chain: MDEFEMIKRNTSEIISEEELREVLKKDEKSAGIGFEPSGKIHLGHYLQIKKMIDLQNAGFDIIIGLADLHAYLNQKGELDEIRKIGDYNKKVFEAMGLKAKYVYGSEEQLDKDYTLNVYRLALKTTLKRARRSMELIAREDENPKVAEVIYPIMQVNSIHYEGVDVAVGGMEQRKIHMLARELLPKKVVCIHNPVLTGLDGEGKMSSSKGNFIAVDDSPEEIRAKIKKAYCPAGVVEGNPIMEIAKYFLEYPLTIKRPEKFGGDLTVNSYEELESLFKNKELHPMRLKNAVAEELIKILEPIRKRL
notes: Methanocaldococcus jannaschii tyrosyl-tRNA synthetase (MjTyrRS), UniProt Q57834, with six substitutions; all 306 amino acid residues were modelled in the crystal structure; Residues of the TEV site may remain after cleavage; also called oNBTyr-tRNA synthetase; M. jannaschii oNBTyrRS; source: E. coli Rosetta2 (DE3), purified (HisTrap, TEV cleavage, HisTrap flow-through, desalting, HiTrap Q); not …
In the case of B1, the “stoichiometry N” value was found to be 2.

Usually stoichiometry N stands for the number of molecules, sites or subunits per partner or assembly.
